Paper PMC8093518, “PprA Protein Inhibits DNA Strand Exchange and ATP Hydrolysis of Deinococcus RecA and Regulates the Recombination in Gamma-Irradiated Cells” (Frontiers in Cell and Developmental Biology, 2021)

Columns and labels:
PprA [1] = target: T1, PprA (Deinococcus radiodurans R1 (ATCC 13939), UniProt O32504 1-300); experiment: EMSA; PprA 2 ug; EMSA: 0.2 pmol 32P probe in 10 ul, 10 mM Tris-HCl pH 7.5, 50 mM NaCl, 1 mM DTT, 10 min, 37 C; 12.5% native PAGE; conditions: protein: recombinant; tags: His-tag removed with Factor Xa (pET28a); label: 32P (polynucleotide kinase, 5' end)
T1 sequence: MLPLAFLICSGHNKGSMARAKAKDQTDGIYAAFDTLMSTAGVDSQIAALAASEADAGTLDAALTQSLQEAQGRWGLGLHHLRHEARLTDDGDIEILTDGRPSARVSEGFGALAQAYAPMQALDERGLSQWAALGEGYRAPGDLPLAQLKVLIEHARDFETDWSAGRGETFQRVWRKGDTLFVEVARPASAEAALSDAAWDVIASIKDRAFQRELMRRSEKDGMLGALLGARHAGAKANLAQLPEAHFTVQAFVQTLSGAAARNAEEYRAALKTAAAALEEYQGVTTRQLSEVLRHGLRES

DrRecA = target: T2, DrRecA (Deinococcus radiodurans R1 (ATCC 13939), UniProt P42443 1-363); experiment: EMSA; no PprA; DrRecA 0.5-2 ug; EMSA: 0.2 pmol 32P probe in 10 ul, 10 mM Tris-HCl pH 7.5, 50 mM NaCl, 1 mM DTT, 10 min, 37 C; 12.5% native PAGE; conditions: protein: recombinant, tags: His-tag removed with Factor Xa (pET28a), label: 32P (polynucleotide kinase, 5' end)
T2 sequence: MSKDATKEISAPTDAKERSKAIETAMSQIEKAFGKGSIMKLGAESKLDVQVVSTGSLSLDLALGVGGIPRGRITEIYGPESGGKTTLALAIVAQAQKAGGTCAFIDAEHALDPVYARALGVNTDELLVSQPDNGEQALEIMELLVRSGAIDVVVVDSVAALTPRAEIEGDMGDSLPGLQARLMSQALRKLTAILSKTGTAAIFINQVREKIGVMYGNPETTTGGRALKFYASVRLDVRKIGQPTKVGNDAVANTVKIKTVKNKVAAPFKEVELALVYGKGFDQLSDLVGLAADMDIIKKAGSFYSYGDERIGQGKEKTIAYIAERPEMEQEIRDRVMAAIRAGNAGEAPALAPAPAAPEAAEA

PprA [2] = target: T1, PprA; experiment: EMSA; PprA 2 ug; band distinct from DrRecA-DNA; EMSA: 0.2 pmol 32P probe in 10 ul, 10 mM Tris-HCl pH 7.5, 50 mM NaCl, 1 mM DTT, 10 min, 37 C; 12.5% native PAGE; conditions: protein: recombinant; tags: His-tag removed with Factor Xa (pET28a); label: 32P (polynucleotide kinase, 5' end); blunt
[3] = target: T3, Recombinant DrRecA, purified (D. radiodurans, UniProt P42443 1-363); experiment: cross-linking; both proteins (approx. 5 μg each) mixed in HEPES buffer pH 7.6 for 10 min, 0.5% glutaraldehyde for 10 min, SDS-PAGE; with or without 1 kb dsDNA, DNase treatment; conditions: both partners purified
T3 construct: RecA of Deinococcus radiodurans, from plasmid pETrecA constructed earlier (Rajpurohit et al., 2016); His tag removed with Factor-Xa; also called pETrecA; source: E. coli BL21(DE3) pLysS, purified (Ni-chelating Sepharose, Q-sepharose, Heparin, Superdex-200)
T3 sequence (looked up): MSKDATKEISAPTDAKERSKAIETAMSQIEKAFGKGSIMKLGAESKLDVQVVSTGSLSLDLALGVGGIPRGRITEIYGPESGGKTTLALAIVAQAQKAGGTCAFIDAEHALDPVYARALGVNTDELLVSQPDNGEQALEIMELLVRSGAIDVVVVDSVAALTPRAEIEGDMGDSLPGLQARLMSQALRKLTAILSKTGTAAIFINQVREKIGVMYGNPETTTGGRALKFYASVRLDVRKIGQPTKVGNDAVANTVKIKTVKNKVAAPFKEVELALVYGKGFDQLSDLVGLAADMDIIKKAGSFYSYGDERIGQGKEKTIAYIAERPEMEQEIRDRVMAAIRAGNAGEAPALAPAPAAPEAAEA

B1: Oligo40-F 40-mer ssDNA (ssDNA)
DNA: TAATACAAAATAAGTAAATGAATAAACAGAGAAAATAAAG
**Q.** What does the source list for B1?
**A.** binding result (PprA [1]): no binding; binding result (DrRecA): binds

B2: Oligo40-F/Oligo40-R 40-mer dsDNA (dsDNA)
DNA 1: TAATACAAAATAAGTAAATGAATAAACAGAGAAAATAAAG
DNA 2: CTTTATTTTCTCTGTTTATTCATTTACTTATTTTGTATTA
**Q.** What does the source list for B2?
**A.** binding result (PprA [2]): binds; binding result (DrRecA; blunt): binds

B3: Recombinant PprA, wild type, purified (natural protein, D. radiodurans, UniProt O32504 1-300, looked up)
chain: MLPLAFLICSGHNKGSMARAKAKDQTDGIYAAFDTLMSTAGVDSQIAALAASEADAGTLDAALTQSLQEAQGRWGLGLHHLRHEARLTDDGDIEILTDGRPSARVSEGFGALAQAYAPMQALDERGLSQWAALGEGYRAPGDLPLAQLKVLIEHARDFETDWSAGRGETFQRVWRKGDTLFVEVARPASAEAALSDAAWDVIASIKDRAFQRELMRRSEKDGMLGALLGARHAGAKANLAQLPEAHFTVQAFVQTLSGAAARNAEEYRAALKTAAAALEEYQGVTTRQLSEVLRHGLRES
notes: PprA of Deinococcus radiodurans, from plasmid pETpprA constructed earlier (Rajpurohit and Misra, 2013); His tag removed with Factor-Xa; also called PprA^wt; pETpprA; source: E. coli BL21(DE3) pLysS, purified (Ni-chelating Sepharose, Q-sepharose, Heparin, Superdex-200)
**Q.** Does B3 bind [3]?
**A.** binds

B4: PprA R166A mutant (natural protein, D. radiodurans, UniProt O32504 1-300, looked up)
chain: MLPLAFLICSGHNKGSMARAKAKDQTDGIYAAFDTLMSTAGVDSQIAALAASEADAGTLDAALTQSLQEAQGRWGLGLHHLRHEARLTDDGDIEILTDGRPSARVSEGFGALAQAYAPMQALDERGLSQWAALGEGYRAPGDLPLAQLKVLIEHARDFETDWSAGAGETFQRVWRKGDTLFVEVARPASAEAALSDAAWDVIASIKDRAFQRELMRRSEKDGMLGALLGARHAGAKANLAQLPEAHFTVQAFVQTLSGAAARNAEEYRAALKTAAAALEEYQGVTTRQLSEVLRHGLRES
notes: PprA of Deinococcus radiodurans with R166A, made with a site-directed mutagenesis kit
**Q.** Does B4 bind [3]?
**A.** binds

B5: PprA R212A mutant (natural protein, D. radiodurans, UniProt O32504 1-300, looked up)
chain: MLPLAFLICSGHNKGSMARAKAKDQTDGIYAAFDTLMSTAGVDSQIAALAASEADAGTLDAALTQSLQEAQGRWGLGLHHLRHEARLTDDGDIEILTDGRPSARVSEGFGALAQAYAPMQALDERGLSQWAALGEGYRAPGDLPLAQLKVLIEHARDFETDWSAGRGETFQRVWRKGDTLFVEVARPASAEAALSDAAWDVIASIKDRAFQAELMRRSEKDGMLGALLGARHAGAKANLAQLPEAHFTVQAFVQTLSGAAARNAEEYRAALKTAAAALEEYQGVTTRQLSEVLRHGLRES
notes: PprA of Deinococcus radiodurans with R212A, made with a site-directed mutagenesis kit; also called oligomer mutant
**Q.** Does B5 bind [3]?
**A.** binds
